For series [1], the target named is DNA polymerase beta (full-length) (Homo sapiens) (UniProt P06746). The experiment in a line: EMSA. The conditions noted are these: EMSA: 20 nM NCP, 20 mM HEPES pH 7.5, 100 mM NaCl, 1 mM EDTA, 1 mM DTT, 0.1 mg/ml BSA, 20 min, 4 °C, 5% native PAGE, 0.2x TBE. For orientation: Mobility shift assays separate free from complexed probe on a gel.
Series [2] deals with Pol beta lyase domain (8 kDa) (rat) (UniProt P06766). Kind of series: EMSA. The conditions noted are these: EMSA: 20 nM NCP, 20 mM HEPES pH 7.5, 100 mM NaCl, 1 mM EDTA, 1 mM DTT, 0.1 mg/ml BSA, 20 min, 4 °C, 5% native PAGE, 0.2x TBE.

On to “ATCGGATGTATATATCTGACACGTGCCTGGAGACTAGGGAGTAATCCCCTTGGCGGTTAAAACGCGGGGGACAGCGCGTACGTGCGTTTAAGCGGTGCTAGAGCTGTCTACGACCAATTGAGCGGCCTCGGCACCGGGATTCTCGAT (double strand) [ND-NCP]”, for which the figures for the dissociation constant Kd in series [1] and in series [2] were 217 nM and 451 nM, respectively.

Turning to “ATCGGATGTATATATCTGACACGTGCCTGGAGACTAGGGAGTAATCCCCTTGGCGGTTAAAACGCGGGGGACAGCGCGTACGTGCGTTTAAGCGGTGCTAGAGCTGTCTACGACCAATTGAGCGGCCTCGGCACCGGGATTCTCGAT / ATCGAGAATCCCGGTGCCGAGGCCGCTCAATTGGTCGTAGACAGCTCTAGCACCGCTTAAACGCACGTACGCGCTGTCCCCCGCGT / TTAACCGCCAAGGGGATTACTCCCTAGTCTCCAGGCACGTGTCAGATATATCCATCCGAT [Gap-NCP-1.5]”, the Kd in series [1] (5'-phosphate on strand 3) amounted to 149 nM.

Regarding “ATCGGATGTATATATCTGACACGTGCCTGGAGACTAGGGAGTAATCCCCTTGGCGGTTAAAACGCGGGGGACAGCGCGTACGTGCGTTTAAGCGGTGCTAGAGCTGTCTACGACCAATTGAGCGGCCTCGGCACCGGGATTCTCGAT / ATCGAGAATCCCGGTGCCGAGGCCGCTCAATTGGTCGTAGACAGCTCTAGCACCGCTTAAACGCACGTACGCGCTGTCCCCCGCGTTTTAACCGC / AAGGGGATTACTCCCTAGTCTCCAGGCACGTGTCAGATATATCCATCCGAT [Gap-NCP-2.5]”, the dissociation constant Kd in series [1] (5'-phosphate on strand 3) came to 118 nM.

In series [1] (5'-phosphate on strand 3), “ATCGGATGTATATATCTGACACGTGCCTGGAGACTAGGGAGTAATCCCCTTGGCGGTTAAAACGCGGGGGACAGCGCGTACGTGCGTTTAAGCGGTGCTAGAGCTGTCTACGACCAATTGAGCGGCCTCGGCACCGGGATTCTCGAT / ATCGAGAATCCCGGTGCCGAGGCCGCTCAATTGGTCGTAGACAGCTCTAGCACCGCTTAAACGCACGTACGCGCTGTCCCCCGCGTTTTAACCGCCAAGGGGATTA / TCCCTAGTCTCCAGGCACGTGTCAGATATATCCATCCGAT [Gap-NCP-3.5]” returned a Kd of 141 nM.

Take “ATCGGATGTATATATCTGACACGTGCCTGGAGACTAGGGAGTAATCCCCTTGGCGGTTAAAACGCGGGGGACAGCGCGTACGTGCGTTTAAGCGGTGCTAGAGCTGTCTACGACCAATTGAGCGGCCTCGGCACCGGGATTCTCGAT / ATCGAGAATCCCGGTGCCGAGGCCGCTCAATTGGTCGTAGACAGCTCTAGCACCGCTTAAACGCACGTACGCGCTGTCCCCCGCGTTTTAACCGCCAAGGGGATTACTCCCTA / TCTCCAGGCACGTGTCAGATATATCCATCCGAT [Gap-NCP-4.5+4]”: the Kd in series [1] (5'-phosphate on strand 3) is 94 nM.

The sequence “ATCGGATGTATATATCTGACACGTGCCTGGAGACTAGGGAGTAATCCCCTTGGCGGTTAAAACGCGGGGGACAGCGCGTACGTGCGTTTAAGCGGTGCTAGAGCTGTCTACGACCAATTGAGCGGCCTCGGCACCGGGATTCTCGAT / ATCGAGAATCCCGGTGCCGAGGCCGCTCAATTGGTCGTAGACAGCTCTAGCACCGCTTAAACGCACGTACGCGCTGTCCCCCGCGTTTTAACCGCCAAGGGGATTACTCCCTAG / CTCCAGGCACGTGTCAGATATATCCATCCGAT [Gap-NCP-4.5+3]” showed an equilibrium dissociation constant (Kd) in series [1] (5'-phosphate on strand 3) of 115 nM. This Kd and that of the sequence before are within 1.5-fold of each other.

“ATCGGATGTATATATCTGACACGTGCCTGGAGACTAGGGAGTAATCCCCTTGGCGGTTAAAACGCGGGGGACAGCGCGTACGTGCGTTTAAGCGGTGCTAGAGCTGTCTACGACCAATTGAGCGGCCTCGGCACCGGGATTCTCGAT / ATCGAGAATCCCGGTGCCGAGGCCGCTCAATTGGTCGTAGACAGCTCTAGCACCGCTTAAACGCACGTACGCGCTGTCCCCCGCGTTTTAACCGCCAAGGGGATTACTCCCTAGT / TCCAGGCACGTGTCAGATATATCCATCCGAT [Gap-NCP-4.5+2]” displayed a Kd in series [1] (5'-phosphate on strand 3) of 137 nM.

Take “ATCGGATGTATATATCTGACACGTGCCTGGAGACTAGGGAGTAATCCCCTTGGCGGTTAAAACGCGGGGGACAGCGCGTACGTGCGTTTAAGCGGTGCTAGAGCTGTCTACGACCAATTGAGCGGCCTCGGCACCGGGATTCTCGAT / ATCGAGAATCCCGGTGCCGAGGCCGCTCAATTGGTCGTAGACAGCTCTAGCACCGCTTAAACGCACGTACGCGCTGTCCCCCGCGTTTTAACCGCCAAGGGGATTACTCCCTAGTCT / CAGGCACGTGTCAGATATATACATCCGAT [Gap-NCP-4.5]”: the equilibrium dissociation constant (Kd) is 98 nM in series [1] (5'-phosphate on strand 3) and 125 nM in series [2] (5'-phosphate on strand 3).

For the sequence “ATCGGATGTATATATCTGACACGTGCCTGGAGACTAGGGAGTAATCCCCTTGGCGGTTAAAACGCGGGGGACAGCGCGTACGTGCGTTTAAGCGGTGCTAGAGCTGTCTACGACCAATTGAGCGGCCTCGGCACCGGGATTCTCGAT / ATCGAGAATCCCGGTGCCGAGGCCGCTCAATTGGTCGTAGACAGCTCTAGCACCGCTTAAACGCACGTACGCGCTGTCCCCCGCGTTTTAACCGCCAAGGGGATTACTCCCTAGTCTCCAGGCACGT / TCAGATATATCCATCCGAT [Gap-NCP-5.5]”, the Kd in series [1] (5'-phosphate on strand 3) was 51 nM.

Usually Kd stands for the constant that tells how readily two partners part at equilibrium. Low readings indicate higher affinity, high ones lower affinity.

The values above are taken from paper PMC11914125.
